Measured values taken from article PMC4871238.

Target: native Dictyostelium discoideum pre-60S ribosomal subunit (Dictyostelium discoideum) (UniProt P34113)
Experiment: cryo-EM structure

Sequence of native Dictyostelium discoideum pre-60S ribosomal subunit (Dictyostelium discoideum) (P34113 whole entry, looked up, tested part not stated): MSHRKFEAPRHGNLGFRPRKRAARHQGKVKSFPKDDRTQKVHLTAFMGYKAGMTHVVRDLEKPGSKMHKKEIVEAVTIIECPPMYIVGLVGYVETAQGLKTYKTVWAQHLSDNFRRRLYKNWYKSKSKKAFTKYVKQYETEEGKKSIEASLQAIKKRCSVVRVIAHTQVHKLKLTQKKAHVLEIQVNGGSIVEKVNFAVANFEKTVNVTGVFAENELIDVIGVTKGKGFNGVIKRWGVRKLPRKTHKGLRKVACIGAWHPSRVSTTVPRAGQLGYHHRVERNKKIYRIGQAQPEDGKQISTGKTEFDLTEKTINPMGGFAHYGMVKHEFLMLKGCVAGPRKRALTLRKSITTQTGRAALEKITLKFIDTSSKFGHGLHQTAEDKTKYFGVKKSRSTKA
Sequence of Dictyostelium discoideum eIF6 (eukaryotic initiation factor 6), endogenous (Q551M2 whole entry): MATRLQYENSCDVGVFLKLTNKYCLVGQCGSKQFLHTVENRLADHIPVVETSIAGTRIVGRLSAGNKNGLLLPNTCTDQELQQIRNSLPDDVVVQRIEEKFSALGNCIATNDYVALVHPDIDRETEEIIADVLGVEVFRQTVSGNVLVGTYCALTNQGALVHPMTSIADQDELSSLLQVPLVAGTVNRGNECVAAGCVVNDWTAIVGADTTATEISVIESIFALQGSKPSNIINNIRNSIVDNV

- percent of native pre-60S subunits carrying eIF6: 85%
Substance: Dictyostelium discoideum eIF6 (eukaryotic initiation factor 6), endogenous (from UniProt Q551M2 1-244) (natural protein)
